# Experimental data taken from patent publication US20050100897A1, “NFAT transcription factors in tumor progression” (priority 2002, published 2005).
# B1: ND5: dominant negative NFAT-5 mutant, amino acids 1-471 (SEQ ID NO:17) of NFAT5a; blocks dimerization of endogenous NFAT-5 (protein, listed as Homo sapiens)
# chain: MGGACSSFTTSSSPTIYSTSVTDSKAMQVESCSSAVGVSNRGVSEKQLTSNTVQQHPSTPKRHTVLYISPPPEDLLDNSRMSCQDEGCGLESEQSCSMWMEDSPSNFSNMSTSSYNDNTEVPRKSRKRNPKQRPGVKRRDCEESNMDIFDADSAKAPHYVLSQLTTDNKGNSKAGNGTLENQKGTGVKKSPMLCGQYPVKSEGKELKIVVQPETQHRARYLTEGSRGSVKDRTQQGFPTVKLEGHNEPVVLQVFVGNDSGRVKPHGFYQACRVTGRNTTPCKEVDIEGTTVIEVGLDPSNNMTLAVDCVGILKLRNADVEARIGIAGSKKKSTRARLVFRVNIMRKDGSTLTLQTPSSPILCTQPAGVPEILKKSLHSCSVKGEEEVFLIGKNFLKGTKVIFQENVSDENSWKSEAEIDMELFHQNHLIVKVPPYHDQHITLPVSVGIYVVTNAGRSHDVQPFTYTPDPAA
# Columns and labels:
# Format in all cases: cell-based, human
# [1] = tested on: MDA-MB-435 β4+-expressing cells (3A7); test: Matrigel chemoinvasion assay, MDA-MB-435 β4+ transfectants; settings: transient transfection; NIH 3T3 conditioned media as chemoattractant
# Protocol: Following the transfection protocol, the ability of the transfected cells to invade Matrigel was assayed. The data are shown as the relative invasion of NFAT transfected cells compared to vector alone-transfected cells (100%). The data shown are mean values (±SEM) of 2 experiments performed in triplicate.
# (§1) Invasion assays were performed using standard methods (see Shaw et al., Cell 91:949-960, 1997) using Transwell chambers coated with Matrigel. Briefly, cells were co-transfected with the indicated NFAT constructs, 1 μg EGFP-N1 (Clontech) and 1 μg pCS2-(n)β-Gal, a •gal expression vector (Dave Turner, University of Michigan) using the Lipofectamine procedure (Life Technologies), and after twenty-four hours, the cells were resuspended in serum-free medium containing 0.1% bovine serum albumin (BSA) and added to each well. […] Cells that stained positive for β-galactosidase expression were counted, and the mean of triplicate assays for each experimental condition was used as % relative invasion.
# [2] = tested on: Clone A colon cancer cell line; test: Matrigel chemoinvasion assay, Clone A cells; settings: transient transfection
# Protocol: as §1
# MDA-MB-231 cells = test: Matrigel chemoinvasion assay, MDA-MB-231 cells; settings: transient transfection
# Text: FIGS. 3A-3C show the role of NFAT-5 in mediating carcinoma invasion. FIG. 3A is a graph showing luciferase levels in MDA-MB-435 cells expressing vector alone, β4.ΔCYT (3C12), or wild-type β4^+ (3A7 clone) that were transiently transfected with an NFAT-5-luciferase reporter construct (NFAT-5-luc). Luciferase activity is shown as relative luciferase units. […] The lysates were resolved by SDS PAGE and immunoblotted with anti-NFAT-5 (α-NFAT-5, top panel) or anti-p85 (α-p85, bottom panel) The position of the 175 kDa and 90 kDa markers are indicated (left). […] The ability of the transfected cells to invade Matrigel was then assayed and the data are shown as the relative invasion of NFAT-5-transfected cells compared to vector alone-transfected cells (100%).
# Invasion assays were performed using standard methods (see Shaw et al., Cell 91:949-960, 1997) using Transwell chambers coated with Matrigel. […] Cells that stained positive for β-galactosidase expression were counted, and the mean of triplicate assays for each experimental condition was used as % relative invasion. […]
# [3] = tested on: NFAT-5 transcriptional activity; test: NFAT-5-luc luciferase reporter assay in MDA-MB-435 β4+ (3A7) cells; settings: co-transfected with dominant negative NFAT-5 (GFP-ND5)
# Protocol: FIGS. 4A-4D are graphs showing that NFAT-5 transcriptional activity is induced in an α6β4-dependent manner. FIG. 4A is a graph showing NFAT-5 transcriptional activity in control parental cells, β4 (3A7), and β4.ΔCYT (3C12) MDA-MB-435 transfectants that were transiently transfected with NFAT-5-luc. The cells were grown in complete media for twenty-four hours, trypsinized, incubated with anti-α6 (clone 135-13C) for 30 minutes, then plated onto secondary antibody-coated plates, either in the presence (+) or absence (−) of NIH 3T3 conditioned medium (CM), for twenty-four hours. As a positive control, cells were also stimulated with PMA (phorbol 12-myristate 13-acetate) and ionomycin (100 nM each) for twenty-four hours. Following stimulation, cells were lysed and NFAT-5 transcriptional activity was assayed. […] NFAT-5 transcriptional activity was measured as described above. […] NFAT-5 transcriptional activity was measured as described above. […]
# Cells were transiently co-transfected with an NFAT luciferase reporter construct (NFAT-luc, 10 μg) and 1 μg pCS2-(n)β-gal using the Lipofectamine procedure (Life Technologies). Twenty-four hours after the transfection, luciferase and beta-galactosidase assays were performed using standard assays on total cell lysates and measured on a luminometer. […]
molecule,measurement,setting,value
B1,carcinoma invasion (relative invasion vs vector alone),[1],significantly inhibited invasion
same,carcinoma invasion (relative invasion vs vector alone),[2],significantly inhibited invasion
same,carcinoma invasion (relative invasion vs vector alone),MDA-MB-231 cells,significantly inhibited invasion
same,"co-stimulated NFAT-5 transcriptional activity (α6β4 + conditioned media, or PMA/ionomycin)",[3],inhibited
